Laboratory results taken from the Human Domainome abundance scans (Beltran et al. 2025).
± gives the uncertainty stated by the source.

B1: POU domain, class 2, transcription factor 2, residues 200 to 269; numbered along this chain, P09086 (parent)
chain: LEELEQFARTFKQRRIKLGFTQGDVGLAMGKLYGNDFSQTTISRFEALNLSFKNMCKLKPLLEKWLNDAE

Variants of: B1
Assay: abundance fitness (aPCA) (normalised: wild type 0, dead -1); higher = more abundant; growth selection in yeast, the domain comes from the species named
Settings: Homo sapiens

Row | Variant | abundance fitness
1 | K12W | -0.337 ± 0.43
2 | K12R | -0.142 ± 0.18
3 | K12A | -0.254 ± 0.38
4 | K12I | 0.02 ± 0.29
5 | K12L | -0.232 ± 0.19
6 | K12H | -0.127 ± 0.49
7 | K12N | -0.583 ± 0.47
8 | K12S | -0.022 ± 0.22
9 | K12E | -0.147 ± 0.22
10 | A8H | -0.604 ± 0.13
11 | A8G | -0.28 ± 0.034
12 | A8S | -0.113 ± 0.045
13 | A8F | -0.708 ± 0.15
14 | A8L | -0.371 ± 0.033
15 | A8V | -0.057 ± 0.029
16 | A8Q | -0.63 ± 0.1
17 | A8E | -0.846 ± 0.11
18 | A8T | -0.065 ± 0.054
19 | A8D | -0.883 ± 0.19
20 | A8P | -0.506 ± 0.11
21 | A8I | -0.082 ± 0.031
22 | A8C | 0.034 ± 0.063
23 | A8W | -0.452 ± 0.08
24 | A8Y | -0.955 ± 0.23

Row | Variant | abundance fitness
25 | A8K | -0.856 ± 0.18
26 | R9K | -0.011 ± 0.014
27 | R9Q | -0.143 ± 0.058
28 | R14H | -0.118 ± 0.053
29 | R14M | -0.061 ± 0.073
30 | R14W | -0.271 ± 0.051
31 | R14D | -0.327 ± 0.11
32 | R14K | 0.024 ± 0.075
33 | R14Q | -0.084 ± 0.069
34 | R14Y | -0.149 ± 0.066
35 | R14T | 0.023 ± 0.047
36 | R14E | -0.138 ± 0.062
37 | R14N | 0.03 ± 0.11
38 | R14A | -0.064 ± 0.048
39 | R14G | -0.021 ± 0.033
40 | R14P | -1.23 ± 0.34
41 | R14I | -0.261 ± 0.14
42 | R14V | -0.128 ± 0.038
43 | F7T | -0.281 ± 0.057
44 | F7M | -0.226 ± 0.075
45 | F7L | -0.286 ± 0.044
46 | F7V | -0.237 ± 0.048
47 | F7K | -0.783 ± 0.1
48 | F7N | -0.48 ± 0.099

Row | Variant | abundance fitness
49 | F7I | -0.397 ± 0.11
50 | F7P | -1.13 ± 0.23
51 | F7Y | -0.192 ± 0.075
52 | F7R | -0.96 ± 0.072
53 | F7Q | -0.676 ± 0.091
54 | F7W | -0.1 ± 0.046
55 | I16H | -0.16 ± 0.083
56 | I16R | -0.059 ± 0.027
57 | I16Q | -0.013 ± 0.061
58 | I16A | -0.085 ± 0.037
59 | I16D | -0.133 ± 0.061
60 | I16K | -0.021 ± 0.034
61 | I16S | -0.071 ± 0.044
62 | I16L | -0.042 ± 0.038
63 | I16T | 0.017 ± 0.074
64 | I16M | -0.06 ± 0.065
65 | I16V | -0.039 ± 0.036
66 | I16P | -0.895 ± 0.12
67 | I16C | -0.149 ± 0.057
68 | I16N | -0.003 ± 0.08
69 | I16F | -0.141 ± 0.051
70 | I16Y | -0.194 ± 0.076
71 | I16G | -0.095 ± 0.032
72 | I16E | 0.048 ± 0.044

Row | Variant | abundance fitness
73 | T10F | 0.003 ± 0.024
74 | T10K | -0.024 ± 0.023
75 | T10P | -1 ± 0.025
76 | T10I | -0.052 ± 0.027
77 | T10V | -0.04 ± 0.018
78 | T10W | -0.142 ± 0.019
79 | T10S | -0.016 ± 0.017
80 | T10E | 0.012 ± 0.025
81 | T10N | 0.012 ± 0.029
82 | T10D | 0.022 ± 0.029
83 | T10M | -0.011 ± 0.019
84 | T10C | -0.084 ± 0.022
85 | T10Q | 0.015 ± 0.019
86 | T10H | -0.013 ± 0.022
87 | T10Y | -0.025 ± 0.024
88 | T10A | -0.035 ± 0.018
89 | T10R | -0.022 ± 0.017
90 | K17L | -0.006 ± 0.036
91 | K17G | -0.027 ± 0.035
92 | K17A | -0.049 ± 0.039
93 | K17H | -0.2 ± 0.086
94 | K17E | -0.082 ± 0.056
95 | K17R | 0.006 ± 0.039
96 | K17W | -0.129 ± 0.052

Row | Variant | abundance fitness
97 | K17Q | -0.096 ± 0.07
98 | K17F | -0.096 ± 0.092
99 | K17C | 0.011 ± 0.073
100 | K17I | -0.072 ± 0.087
101 | K17V | -0.063 ± 0.04
102 | K17S | -0.009 ± 0.033
103 | K17D | 0.016 ± 0.082
104 | K17T | -0.07 ± 0.063
105 | K17Y | -0.121 ± 0.084
106 | K17M | 0.001 ± 0.07
107 | K17N | 0.02 ± 0.081
108 | R15Y | -0.243 ± 0.094
109 | R15F | -0.99 ± 0.18
110 | R15V | -0.806 ± 0.062
111 | R15W | -0.913 ± 0.086
112 | R15I | -0.85 ± 0.19
113 | R15G | -1.01 ± 0.092
114 | R15E | -0.897 ± 0.12
115 | R15H | -1.13 ± 0.39
116 | R15A | -0.977 ± 0.091
117 | R15N | -0.799 ± 0.13
118 | R15Q | -1.04 ± 0.079
119 | R15C | -0.698 ± 0.084
120 | R15S | -1 ± 0.12

Row | Variant | abundance fitness
121 | R15L | -0.806 ± 0.057
122 | R15T | -1.01 ± 0.11
123 | R15K | -1.08 ± 0.23
124 | R15P | -1.16 ± 0.14
125 | Q13S | -0.006 ± 0.028
126 | Q13T | 0.001 ± 0.033
127 | Q13P | -0.293 ± 0.027
128 | Q13G | -0.038 ± 0.034
129 | Q13R | -0.054 ± 0.029
130 | Q13N | -0.07 ± 0.065
131 | Q13L | -0.033 ± 0.031
132 | Q13C | -0.115 ± 0.062
133 | Q13M | -0.023 ± 0.04
134 | Q13D | -0.04 ± 0.1
135 | Q13V | -0.023 ± 0.036
136 | Q13F | -0.032 ± 0.089
137 | Q13H | -0.085 ± 0.077
138 | Q13E | 0.06 ± 0.048
139 | Q13Y | -0.169 ± 0.11
140 | Q13W | -0.172 ± 0.038
141 | Q13K | -0.041 ± 0.05
142 | F11S | -0.242 ± 0.053
143 | F11R | -1.01 ± 0.088
144 | F11A | -0.151 ± 0.033

Row | Variant | abundance fitness
145 | F11N | -1.1 ± 0.4
146 | F11D | -0.565 ± 0.096
147 | F11Y | -0.627 ± 0.17
148 | F11T | -0.495 ± 0.073
149 | F11E | -0.977 ± 0.15
150 | F11V | -0.239 ± 0.033
151 | F11K | -0.961 ± 0.25
152 | F11G | -0.789 ± 0.053
153 | F11I | -0.254 ± 0.075
154 | F11L | -0.177 ± 0.034
155 | F11M | -0.167 ± 0.055
156 | F11C | -0.143 ± 0.089
157 | F11Q | -1.01 ± 0.23
158 | F11W | -0.209 ± 0.04
159 | F11P | -1.03 ± 0.15
160 | L18A | -0.025 ± 0.051
161 | L18F | -0.035 ± 0.082
162 | L18I | -0.099 ± 0.061
163 | L18C | -0.213 ± 0.072
164 | L18H | -0.049 ± 0.12
165 | L18E | -0.253 ± 0.061
166 | L18D | -0.763 ± 0.17
167 | L18G | -0.159 ± 0.024
